One block for each binder: values may come before it.
Assays:
human serum albumin [1] = molecular target: T1, human serum albumin (human, UniProt P02768 25-609); assay: BLI (Octet Red), HSA immobilised on AR2G sensor, pH 6.0
T1 construct: Immobilised on an AR2G biosensor; also called HSA; human serum albumin (Sigma)
Experimental: (§1) By using Bio-Layer Interferometry (BLI) and Octet® BLI systems (Octet® Red, Sartorius, Germany), the binding ability of the SAFA-FSH protein to human serum albumin was analyzed. On an AR2G biosensor chip (Sartorius, Germany), human serum albumin (Sigma) was immobilized at a concentration of 30 μg/mL with a 10 mM acetate buffer pH 5.0, and the SAFA-FSH protein was added thereto at concentrations of 6.25 nM, 3.125 nM, 1.56 nM, and 0.78 nM (association: 600 s, dissociation: 900 s), so as to confirm the binding ability between the two under conditions of pH 7.4 or pH 6.0 conditions.

human serum albumin [2] = molecular target: T1, human serum albumin; assay: BLI (Octet Red), HSA immobilised on AR2G sensor, pH 7.4
Experimental: as §1

[3] = molecular target: T2, human follicle stimulating hormone receptor (human, UniProt P23945 18-695); assay: flow cytometry on human FSHR stable HEK293 cells, detection with goat anti-human IgG Fd-FITC
T2 construct: whole, on cells; also called human FSHR; human FSH receptor
T2 sequence (looked up): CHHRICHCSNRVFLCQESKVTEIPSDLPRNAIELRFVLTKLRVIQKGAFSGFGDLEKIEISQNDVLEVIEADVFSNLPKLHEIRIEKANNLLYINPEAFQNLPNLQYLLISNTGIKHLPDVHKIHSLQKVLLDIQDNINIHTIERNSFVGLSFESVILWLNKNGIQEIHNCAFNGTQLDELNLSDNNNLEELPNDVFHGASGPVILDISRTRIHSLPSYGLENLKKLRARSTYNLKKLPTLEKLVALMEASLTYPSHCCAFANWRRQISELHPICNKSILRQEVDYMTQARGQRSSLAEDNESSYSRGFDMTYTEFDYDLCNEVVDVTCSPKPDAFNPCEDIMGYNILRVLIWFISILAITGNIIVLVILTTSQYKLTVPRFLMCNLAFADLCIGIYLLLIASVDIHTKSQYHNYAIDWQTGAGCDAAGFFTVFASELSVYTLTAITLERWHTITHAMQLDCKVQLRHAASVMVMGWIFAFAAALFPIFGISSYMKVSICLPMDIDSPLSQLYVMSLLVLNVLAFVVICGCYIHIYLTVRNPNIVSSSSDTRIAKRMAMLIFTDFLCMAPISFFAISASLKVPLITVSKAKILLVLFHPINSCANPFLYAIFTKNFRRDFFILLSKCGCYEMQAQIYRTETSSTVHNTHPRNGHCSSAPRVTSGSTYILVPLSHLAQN
Experimental: By using a human FSHR stable cell line (HEK293, Creative Biogene, USA) expressing human FSH receptors on the surface, the binding between the SAFA-FSH protein and the FSH receptors was analyzed with a CytoFLEX flow cytometer (Beckman Coulter, USA).
Subsequently, the binding between the SAFA-FSH protein and the human FSHR was confirmed by using the human FSHR stable cell line in which the expression of human FSHR was confirmed. Specifically, the human FSHR stable cells were dissolved in MACS buffer (PBS containing 0.5% BSA and 2 mM EDTA) at a concentration of 1×10⁶ cells/ml, and then added in an amount of 100 μl (1.0×10⁵ cells/test) to a 1.7 ml tube. The cells were then centrifuged at 500×g at 4° C. for 5 minutes. After removing the supernatant from the 1.7 ml tube, 100 μl each of the SAFA-FSH protein and the SL335 fragment that were diluted with MACS buffer at a concentration from 1,000 nM to 0.064 nM was added to the same tube to proceed a reaction at 4° C. for 30 minutes. After 500 μl of MACS buffer was added to the tube and the cells were centrifuged at 500×g at 4° C. for 5 minutes, the supernatant was removed therefrom to remove unbound proteins. 100 μl of goat anti-human IgG Fd-FITC (Southern Biotech, USA) antibody diluted with MACS buffer at a ratio of 1:500 was added to the tube to proceed a reaction at 4° C. for 30 minutes. […]

T1 sequence (P02768 25-609 limits assumed): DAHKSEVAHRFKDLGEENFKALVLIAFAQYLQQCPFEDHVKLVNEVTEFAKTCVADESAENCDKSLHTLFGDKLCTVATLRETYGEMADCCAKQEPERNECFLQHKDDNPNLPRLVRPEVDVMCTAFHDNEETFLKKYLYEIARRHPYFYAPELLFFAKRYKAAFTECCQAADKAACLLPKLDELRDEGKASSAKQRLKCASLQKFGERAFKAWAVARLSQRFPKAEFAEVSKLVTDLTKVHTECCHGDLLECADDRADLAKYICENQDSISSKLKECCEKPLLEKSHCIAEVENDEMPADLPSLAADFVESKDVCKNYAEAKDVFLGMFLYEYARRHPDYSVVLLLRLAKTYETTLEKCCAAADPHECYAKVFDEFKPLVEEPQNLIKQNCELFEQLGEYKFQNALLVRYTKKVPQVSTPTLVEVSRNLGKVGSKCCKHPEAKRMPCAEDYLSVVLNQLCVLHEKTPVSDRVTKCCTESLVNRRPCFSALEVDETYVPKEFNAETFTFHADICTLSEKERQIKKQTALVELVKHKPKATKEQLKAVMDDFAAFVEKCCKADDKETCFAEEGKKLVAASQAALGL

- Kd (human serum albumin [1]): 0.313 nM
- koff (human serum albumin [1]): 0.000149 s⁻¹
- kon (human serum albumin [1]): 475000 M⁻¹ s⁻¹
- Kd (human serum albumin [2]): 0.359 nM
- koff (human serum albumin [2]): 0.000136 s⁻¹
- kon (human serum albumin [2]): 379000 M⁻¹ s⁻¹
B1: SAFA-FSH-B protein (other)
heavy: QVQLVQSGGGPVKPGGSLRLSCAASGFMFRAYSMNWVRQAPGKGLEWVSSISSSGRYIHYADSVKGRFTISRDNAKNSLYLQMNSLRAEDTAVYYCARETVMAGKALDYWGQGTLVTVSSASTKGPSVFPLAPSSKSTSEGTAALGCLVKDYFPEPVTVSWNSGALTSGVHTFPAVLQSSGLYSLSSVVTVPSSSLGTQTYICNVNHKPSNTKVDKKVEPKSSGGGGSGGGGSGGGGSNSCELTNITIAIEKEECRFCISINTTWCAGYCYTRDLVYKDPARPKIQKTCTFKELVYETVRVPGCAHHADSLYTYPVATQCHCGKCDSDSTDCTVRGLGPSYCSFGEMKE
light: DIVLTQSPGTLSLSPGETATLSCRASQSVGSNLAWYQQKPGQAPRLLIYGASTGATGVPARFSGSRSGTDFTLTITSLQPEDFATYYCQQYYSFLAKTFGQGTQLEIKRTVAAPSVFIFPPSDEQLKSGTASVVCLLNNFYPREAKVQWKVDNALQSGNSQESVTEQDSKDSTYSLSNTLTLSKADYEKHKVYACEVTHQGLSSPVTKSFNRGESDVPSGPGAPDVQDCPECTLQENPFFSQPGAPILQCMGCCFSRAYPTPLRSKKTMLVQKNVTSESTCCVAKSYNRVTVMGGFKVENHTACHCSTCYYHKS
notes: Anti-serum-albumin Fab SL335 with hFSH beta on the C-terminus of CH1 and hFSH alpha on the C-terminus of CL; also called SAFA-FSH protein; recombinant fusion protein

- binding result [3]: no binding (tested: 1000 nM)
B2: SL335 fragment (Fab, V domains shown)
VH: QVQLVQSGGGPVKPGGSLRLSCAASGFMFRAYSMNWVRQAPGKGLEWVSSISSSGRYIHYADSVKGRFTISRDNAKNSLYLQMNSLRAEDTAVYYCARETVMAGKALDYWGQGTLVTVSS
VL: DIVLTQSPGTLSLSPGETATLSCRASQSVGSNLAWYQQKPGQAPRLLIYGASTGATGVPARFSGSRSGTDFTLTITSLQPEDFATYYCQQYYSFLAKTFGQGTQLEIKR
notes: Fab without FSH, used as the control in the FSHR flow cytometry assay; also called human anti-serum albumin Fab antibody fragment
